Among the data in patent US20210332112A1 are EC50 (read off the curve) values, retold here.

The target in the assay is pertussis toxin (Bordetella pertussis) (UniProt P04977). The experiment in a line: ELISA, plate coated with pertussis toxin, antibody titrated, detection with goat anti-human kappa constant domain-HRP [panel C]. (In general: An ELISA detects its analyte on a solid surface through an enzyme-linked reagent.)

As a reminder, the EC50 (read off the curve) is the midpoint of the concentration-response curve. Consider hu1B7-YTE extended half-life antibody, for which the EC50 (read off the curve) worked out at 0.04 µg/mL.
